From patent US20100129869 come the findings set out here.

Assay in all cases: cell_activity
One data set relates to ZFN 12176 (engineered). The note with it: pair with ZFN 12172; CHO clone 1F1.6, Surveyor.
The next data set relates to ZFN 12172 (engineered). The note with it: pair with ZFN 12176; CHO clone 1F1.6, Surveyor.
Another data set has as its system ZFN 9461 (engineered). The note with it: pair with ZFN 7844; CHO-S GS-/- B3, Surveyor.
Another data set deals with ZFN 9477 (engineered). The note with it: pair with ZFN 9476; CHO-S GS-/- B3, Surveyor.
In a further data set the test system is ZFN 9476 (engineered). The note with it: pair with ZFN 9477; CHO-S GS-/- B3, Surveyor.
Another data set relates to ZFN 7844 (engineered). The note with it: pair with ZFN 9461; CHO-S GS-/- B3, Surveyor.
A further data set concerns ZFN 8361 (engineered). The note with it: pair with ZFN 8365; CHO cells, Surveyor.
The next data set concerns ZFN 9075 (engineered). The note with it: pair with ZFN 9372.
The subject of another data set is ZFN 9372 (engineered). The note with it: pair with ZFN 9075.
The test system of a further data set is ZFN 8365 (engineered). The note with it: pair with ZFN 8361; CHO cells, Surveyor.
Where [1] appears, read: wt FokI, CHO-K1, Surveyor, 24% with obligate heterodimer FokI, 25% in CHO-S.
[2] abbreviates: HEK293, CEL-I, also active in K562.

With “AAGAAGGGTCATCAG (double strand) [CHO FUT8 exon 10 ZFN 12176 half-site]”, the activity (% modified alleles) with ZFN 12176 (engineered) stood at 7.5. “AAGGAGGCAAAGACAAAG (double strand) [CHO FUT8 exon 10 ZFN 12172 half-site]” yielded an activity (% modified alleles) in the data set with ZFN 12172 (engineered) of 7.5. In the case of “AGGGAAGGTCTCCGTT (double strand) [CHO DHFR exon 1 ZFN 9461 half-site]”, the activity (% modified alleles) in the data set on ZFN 9461 (engineered) is 15. “AGTCCGGGGGGTGGTG (double strand) [CHO DHFR intron 1 ZFN 9477 half-site]” came in with an activity (% modified alleles) in the data set on ZFN 9477 (engineered) of 18. On to “CATGGGTAGCCGCTGA (double strand) [CHO DHFR intron 1 ZFN 9476 half-site]”, for which, in the data set on ZFN 9476 (engineered), the activity (% modified alleles) is 18.

As for “CCAATGCTCAGGTACT (double strand) [CHO DHFR exon 1 ZFN 7844 half-site]”, the activity (% modified alleles) in the data set on ZFN 7844 (engineered) is 15. “CTGGGTTGATGGTACTGGAGAAGGACTG (double strand) [CHO GS exon 2 ZFN 8361 half-site]”: the activity (% modified chromosomes) in the data set with ZFN 8361 (engineered) worked out at 7. In the data set on ZFN 9075 (engineered) (setting [1]), “GAATGGTGCAGGCTGC (double strand) [CHO GS exon 6 ZFN 9075 half-site]” had an activity (% modified chromosomes) of 26.

Take “GTTCCCAGGAATGGGCTTGGGG (double strand) [CHO GS exon 6 ZFN 9372 half-site]”: in the data set with ZFN 9372 (engineered) (setting [1]), the activity (% modified chromosomes) stood at 26. As for “TATACATGGCTTGGACTTTCTCACCCTG (double strand) [CHO GS exon 2 ZFN 8365 half-site]”, the activity (% modified chromosomes) in the data set with ZFN 8365 (engineered) was 7.

human GS exon 6 target: the activity in the data set with ZFN 9075 (engineered) (setting [2]) and in the data set with ZFN 9372 (engineered) (setting [2]) was 21 % NHEJ each time.
